The supplement of paper PMC10724198
± gives the standard deviation of the averaged measurements.

Assays:
Saccharomyces cerevisiae [1] = assay: protein stability index of tFT-peptide fusion (C-terminal peptide) (PSI (0-1 scale)); higher = more stable (slower turnover); details: genetic background: wild type; temperature: 30 C
Saccharomyces cerevisiae [2] = assay: as above
Procedure: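 MPS profiling in S. cerevisiae of the tFT-X12 degron library: putative degron peptides plus stable controls, 12 aa, fused to the C-terminus of a sfGFP-mCherry timer. Cells are FACS-sorted into 8 mCherry/sfGFP bins and deep-sequenced. PSI runs from 0 (unstable) to 1 (stable). Backgrounds are wild type, das1Δ and doa10Δ at 30 °C, and wild type, das1Δ, cdc34-1 and cdc53-1 at 37 °C; 2-3 technical replicates each.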

[3] = genetic background: cdc34-1, temperature: 37 C
[4] = genetic background: cdc53-1, temperature: 37 C
[5] = genetic background: das1 deletion, temperature: 30 C
[6] = genetic background: das1 deletion, temperature: 37 C
[7] = genetic background: doa10 deletion, temperature: 30 C
[8] = genetic background: wild type, temperature: 30 C
[9] = genetic background: wild type, temperature: 37 C
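Further: PSI is a weighted mean of sequencing reads over stability bins, variants kept only with over 10 reads, mCherry proximal and sfGFP distal, peptide attached via GGGS linker.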

| Sequence | protein stability index (Saccharomyces cerevisiae [1]) | protein stability index (Saccharomyces cerevisiae [2]; [3]) | protein stability index (Saccharomyces cerevisiae [2]; [4]) | protein stability index (Saccharomyces cerevisiae [2]; [5]) | protein stability index (Saccharomyces cerevisiae [2]; [6]) | protein stability index (Saccharomyces cerevisiae [2]; [7]) | protein stability index (Saccharomyces cerevisiae [2]; [8]) | protein stability index (Saccharomyces cerevisiae [2]; [9]) |
| --- | --- | --- | --- | --- | --- | --- | --- | --- |
| FFMLWCRVLLRL | 0.2187 ± 0.002 | 0.144 ± 0.026 | 0.102 ± 0.017 | 0.215 ± 0.014 | 0.278 ± 0.0028 | 0.18536 ± 0.00012 | 0.145 ± 0.031 | 0.167 ± 0.0071 |
| RLPRILVLVCLF | 0.237 ± 0.017 | 0.231 ± 0.0089 | 0.318 ± 0.025 | 0.228 ± 0.04 | 0.383 ± 0.00011 | 0.169 ± 0.0018 | 0.163 ± 0.022 | 0.25 ± 0.0094 |
| PVFVLFFFSSLV | 0.44 ± 0.012 | 0.421 ± 0.012 | 0.533 ± 0.0086 | 0.371 ± 0.028 | 0.5579 ± 0.0041 | 0.329 ± 0.011 | 0.35 ± 0.013 | 0.5151 ± 0.0018 |
| VFFVLAVVGADA | 0.397 ± 0.045 | 0.383 ± 0.044 | 0.461 ± 0.024 | 0.331 ± 0.033 | 0.551 ± 0.018 | 0.268 ± 0.0086 | 0.306 ± 0.02 | 0.467 ± 0.053 |
| FSFFLYFFLLLF | 0.315 ± 0.0031 | 0.327 ± 0.025 | 0.304 ± 0.0072 | 0.31 ± 0.026 | 0.402 ± 0.016 | 0.392 ± 0.032 | 0.271 ± 0.034 | 0.389 ± 0.016 |
| SVFWCFHVLFWS | 0.39 ± 0.0011 | 0.425 ± 0.039 | 0.4971 ± 0.0027 | 0.395 ± 0.025 | 0.5448 ± 0.0013 | 0.327 ± 0.011 | 0.345 ± 0.022 | 0.4926 ± 0.0049 |
| FLGPMRVLVSSV | 0.522 ± 0.073 | 0.568 ± 0.03 | 0.606 ± 0.032 | 0.424 ± 0.03 | 0.6003 ± 0.0019 | 0.401 ± 0.015 | 0.425 ± 0.026 | 0.565 ± 0.0044 |
| SVPIAFYLLFFQ | 0.464 ± 0.021 | 0.557 ± 0.0081 | 0.605 ± 0.027 | 0.458 ± 0.021 | 0.648 ± 0.013 | 0.434 ± 0.013 | 0.456 ± 0.016 | 0.575 ± 0.016 |
| GELPGELYKFWL | 0.754 ± 0.03 | 0.769 ± 0.052 | 0.7774 ± 0.005 | 0.664 ± 0.022 | 0.7558 ± 0.0025 | 0.671 ± 0.024 | 0.671 ± 0.016 | 0.743 ± 0.021 |
| LLVRYRRALVLL | 0.142 ± 0.051 | 0.338 ± 0.0093 | 0.412 ± 0.018 | 0.425 ± 0.025 | 0.53 ± 0.023 | 0.0924 ± 0.015 | 0.0953 ± 0.036 | 0.131 ± 0.033 |
| QPTGYFKLIIIK | 0.3976 ± 0.0014 | 0.317 ± 0.029 | 0.393 ± 0.072 | 0.3 ± 0.044 | 0.473 ± 0.047 | 0.38 ± 0.0083 | 0.323 ± 0.067 | 0.4476 ± 0.0013 |
| RAVLRFVMVWVL | 0.317 ± 0.0068 | 0.499 ± 0.042 | 0.611 ± 0.024 | 0.466 ± 0.02 | 0.5789 ± 0.003 | 0.253 ± 0.024 | 0.244 ± 0.051 | 0.434 ± 0.022 |
| AYCGGRNKCTTE | 0.701 ± 0.0081 | 0.689 ± 0.015 | 0.711 ± 0.021 | 0.644 ± 0.034 | 0.744 ± 0.013 | 0.659 ± 0.014 | 0.643 ± 0.011 | 0.712 ± 0.0078 |
| PFFVLFSLAFLF | 0.279 ± 0.07 | 0.375 ± 0.018 | 0.439 ± 0.033 | 0.302 ± 0.04 | 0.4886 ± 0.00064 | 0.2698 ± 0.0019 | 0.278 ± 0.017 | 0.422 ± 0.015 |
| SFVFLVRRWLFV | 0.213 ± 0.025 | 0.354 ± 0.071 | 0.582 ± 0.02 | 0.563 ± 0.011 | 0.622 ± 0.023 | 0.136 ± 0.0077 | 0.133 ± 0.017 | 0.159 ± 0.011 |
| VSWWRGVYVVLF | 0.518 ± 0.039 | 0.503 ± 0.019 | 0.5319 ± 0.00099 | 0.388 ± 0.031 | 0.566 ± 0.0089 | 0.342 ± 0.013 | 0.357 ± 0.018 | 0.526 ± 0.023 |
| FVFAMSECIVLS | 0.308 ± 0.0053 | 0.269 ± 0.014 | 0.318 ± 0.0043 | 0.205 ± 0.025 | 0.393 ± 0.0046 | 0.269 ± 0.0044 | 0.214 ± 0.022 | 0.364 ± 0.00049 |
| CLEHLVYCRLAS | 0.131 ± 0.022 | 0.435 ± 0.046 | 0.624 ± 0.06 | 0.555 ± 0.015 | 0.6774 ± 0.0062 | 0.0612 ± 0.0023 | 0.0694 ± 0.025 | 0.0634 ± 0.0027 |
| CFVQVGGLVKIS | 0.412 ± 0.012 | 0.66 ± 0.045 | 0.725 ± 0.042 | 0.61 ± 0.012 | 0.731 ± 0.033 | 0.248 ± 0.02 | 0.293 ± 0.036 | 0.57 ± 0.04 |
| LPALPFPIPTFA | 0.243 ± 0.053 | 0.0567 ± 0.00074 | 0.0586 ± 0.0097 | 0.186 ± 0.027 | 0.201 ± 0.005 | 0.134 ± 0.0084 | 0.173 ± 0.031 | 0.179 ± 0.01 |

| Sequence | protein stability index (Saccharomyces cerevisiae [1]) | protein stability index (Saccharomyces cerevisiae [2]; [3]) | protein stability index (Saccharomyces cerevisiae [2]; [4]) | protein stability index (Saccharomyces cerevisiae [2]; [5]) | protein stability index (Saccharomyces cerevisiae [2]; [6]) | protein stability index (Saccharomyces cerevisiae [2]; [7]) | protein stability index (Saccharomyces cerevisiae [2]; [8]) | protein stability index (Saccharomyces cerevisiae [2]; [9]) |
| --- | --- | --- | --- | --- | --- | --- | --- | --- |
| SFSFRPCLLLFF | 0.336 ± 0.099 | 0.32771 ± 1.1e-05 | 0.355 ± 0.0074 | 0.357 ± 0.036 | 0.51 ± 0.0096 | 0.38211 ± 0.00035 | 0.283 ± 0.033 | 0.417 ± 0.021 |
| PSSPTPPPSSSP | 0.353 ± 0.039 | 0.655 ± 0.021 | 0.726 ± 0.011 | 0.664 ± 0.017 | 0.73 ± 0.0086 | 0.679 ± 0.017 | 0.673 ± 0.011 | 0.7306 ± 0.0015 |
| RVRRETRLRQIA | 0.27 ± 0.047 | 0.597 ± 0.0087 | 0.732 ± 0.043 | 0.65 ± 0.024 | 0.71 ± 0.021 | 0.1423 ± 0.00049 | 0.147 ± 0.0031 | 0.269 ± 0.0076 |
| VSLSEVAIIVHG | 0.517 ± 0.026 | 0.544 ± 0.025 | 0.611 ± 0.0098 | 0.418 ± 0.035 | 0.596 ± 0.014 | 0.391 ± 0.022 | 0.426 ± 0.022 | 0.5739 ± 0.0012 |
| KDIFQIYTLYVF | 0.39 ± 0.034 | 0.407 ± 0.011 | 0.4611 ± 0.0014 | 0.329 ± 0.035 | 0.502 ± 0.023 | 0.277 ± 0.0099 | 0.3 ± 0.022 | 0.467 ± 0.012 |
| EVVFHVFLVGLV | 0.362 ± 0.0059 | 0.314 ± 0.015 | 0.451 ± 0.015 | 0.292 ± 0.035 | 0.512 ± 0.018 | 0.203 ± 0.012 | 0.274 ± 0.013 | 0.464 ± 0.0058 |
| LASSCYRHLLVV | 0.137 ± 0.002 | 0.242 ± 0.0047 | 0.323 ± 0.0065 | 0.289 ± 0.029 | 0.4343 ± 0.0036 | 0.0628 ± 0.016 | 0.0775 ± 0.017 | 0.078 ± 0.044 |
| PALPQPMNPAPP | 0.725 ± 0.032 | 0.656 ± 0.043 | 0.722 ± 0.0094 | 0.657 ± 0.014 | 0.727 ± 0.015 | 0.667 ± 0.022 | 0.66 ± 0.016 | 0.6734 ± 0.0059 |
| VWWWGAVGWLMV | 0.454 ± 0.0008 | 0.572 ± 0.036 | 0.602 ± 0.028 | 0.528 ± 0.026 | 0.628 ± 0.016 | 0.392 ± 0.017 | 0.416 ± 0.018 | 0.547 ± 0.01 |
| WVVLVCGFVLLG | 0.3175 ± 0.0027 | 0.246 ± 0.0069 | 0.369 ± 0.0077 | 0.243 ± 0.042 | 0.442 ± 0.0073 | 0.22 ± 0.0029 | 0.234 ± 0.019 | 0.361 ± 0.012 |
| AYVAPRRALMCS | 0.421 ± 0.069 | 0.422 ± 0.02 | 0.495 ± 0.019 | 0.352 ± 0.031 | 0.517 ± 0.011 | 0.259 ± 0.011 | 0.281 ± 0.018 | 0.406 ± 0.017 |
| YFTNCYRSILTF | 0.4436 ± 0.00083 | 0.4366 ± 0.0011 | 0.487 ± 0.013 | 0.367 ± 0.047 | 0.51517 ± 0.00037 | 0.3196 ± 0.00079 | 0.355 ± 0.031 | 0.48177 ± 0.00025 |
| VDVWRWRGLRVG | 0.555 ± 0.11 | 0.635 ± 0.029 | 0.73743 ± 0.00065 | 0.61 ± 0.013 | 0.7528 ± 0.00093 | 0.3592 ± 0.0023 | 0.414 ± 0.031 | 0.599 ± 0.0082 |
| APLSPLLPPFLC | 0.391 ± 0.088 | 0.693 ± 0.036 | 0.729 ± 0.012 | 0.661 ± 0.024 | 0.74816 ± 0.00015 | 0.3485 ± 0.0016 | 0.369 ± 0.05 | 0.595 ± 0.013 |
| ACLLCVCVESRE | 0.494 ± 0.013 | 0.531 ± 0.045 | 0.575 ± 0.053 | 0.414 ± 0.03 | 0.61303 ± 0.00036 | 0.38 ± 0.016 | 0.41 ± 0.015 | 0.5691 ± 0.0014 |
| GLLLLGIRLKWG | 0.269 ± 0.011 | 0.139 ± 0.029 | 0.274 ± 0.037 | 0.208 ± 0.015 | 0.363 ± 0.026 | 0.157 ± 0.014 | 0.206 ± 0.013 | 0.328 ± 0.02 |
| FVVLVFMLGSVC | 0.365 ± 0.037 | 0.274 ± 0.035 | 0.379 ± 0.029 | 0.254 ± 0.044 | 0.454 ± 0.044 | 0.234 ± 0.0062 | 0.245 ± 0.049 | 0.426 ± 0.035 |
| WVLSRAAFVFFF | 0.44 ± 0.018 | 0.587 ± 0.04 | 0.612 ± 0.0096 | 0.473 ± 0.019 | 0.606 ± 0.011 | 0.322 ± 0.0078 | 0.337 ± 0.022 | 0.5201 ± 0.0035 |
| VCLVAGVFFCLL | 0.629 ± 0.24 | 0.5 ± 0.018 | 0.587 ± 0.025 | 0.44 ± 0.018 | 0.638 ± 0.021 | 0.422 ± 0.017 | 0.449 ± 0.014 | 0.575 ± 0.013 |
